Results reported in doi:10.1101/2024.12.09.627393.

What was measured:
[1] = target: H4Tetra^ac nucleosome (UniProt P68431); test: AlphaScreen or HTRF; dCypher: GST-CECR2-BRD titrated against PTM-defined nucleosomes (10 nM); glutathione Acceptor and streptavidin Donor beads; 20 mM Tris pH 7.5, 250 mM NaCl, 0.01% NP-40, 0.01% BSA, 1 mM DTT; room temperature; relative EC50 (EC50^rel)
[2] = target: H3Tetra^ac nucleosome (UniProt P68431); test: as above

Chain of GST-CECR2-BRD (GST tag retained, for dCypher assays) (Q9BXF3 424-538): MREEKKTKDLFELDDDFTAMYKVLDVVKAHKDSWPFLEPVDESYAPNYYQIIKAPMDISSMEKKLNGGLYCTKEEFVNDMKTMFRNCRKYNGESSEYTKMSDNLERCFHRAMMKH

- EC50 [1]: 9.2 nM
- EC50 [2]: 6 nM
Substance: GST-CECR2-BRD (GST tag retained, for dCypher assays) (from UniProt Q9BXF3-1 424-538) (domain or fragment)
